# Numbering of substitutions follows the chain as printed. Names may count otherwise.
# T1: canine IL-13 (canine, UniProt Q9N0W9 19-131, limits assumed, biotin-labeled in the OCTET assay)
# T1 construct: also called cIL-13; canine Interleukin-13
# T1 sequence (looked up): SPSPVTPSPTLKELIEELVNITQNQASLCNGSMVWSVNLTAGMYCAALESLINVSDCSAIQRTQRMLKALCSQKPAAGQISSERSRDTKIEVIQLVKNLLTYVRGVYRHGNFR
# T2: canine IL-4 (canine, UniProt O77762 25-132, biotin-labeled in the OCTET assay)
# T2 sequence (looked up): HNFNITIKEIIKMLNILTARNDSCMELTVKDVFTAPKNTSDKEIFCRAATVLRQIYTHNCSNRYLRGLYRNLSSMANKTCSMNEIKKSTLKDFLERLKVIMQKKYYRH
# B1: Caninized 44E2 H5k1 (antibody, V domains shown)
# VH: ELTLQESGPGLVKPSQTLSLTCTVSGFSLTSNGVSWIRQRPGRGLEWMGAISSGGSTYYNSVLKSRISITADTAKNQFSLQLSSMTTEDTAVYYCARRLSGYNYVPFAYWGQGTLVTVSS
# VL: EIVMTQSPASLSLSQEEKVTITCKASQNIYKHLAWYQQKPGQAPKLLIYNANSLQTGVPSRFSGSGSGTDFSFTISSLEPEDVAVYYCQQYYSGDTFGAGTKVELKR
# B2: Caninized 44E2 H5k2 (antibody, V domains shown)
# VH: B1 VH
# VL: B1 VL with V58I, Y87F
# B3: Chimeric rat/canine 28F12 (antibody, V domains shown)
# VH: EVQLVESDGGLAQPGRSLKLSCAASGFTFSDYYMAWVRQAPTKGLEWVATISYDGSSTYYRDSVRGRFTISRDNAKSTLYLQMDSLRSEDTATYYCARGPLTDWAPNWFAYWGQGTLVTVSS
# VL: DIQMTQSPASLSASLGETVTIQCQTSEDIYSGLAWYQQKPGKSPQFLIYGASRLEDGVPSRFSGSGSGTQYSLKISSMQTEDEGVYFCQQGLKYPNTFGAGTKLELKR
# B4: Caninized 10A12 H1L5 (antibody, V domains shown)
# VH: EVQLVESGGDLVKPGGSLRLSCVASGFTFSNYYMAWVRQAPGKGLQWVASISTGGGNTYYRDSVKGRFTISRDNAKNTLYLQMNSLRAEDTAMYYCAKHGTLYFDYWGQGTLVTVSS
# VL: QPVLTQPPSLSASLGTTARLTCERSSGDIGDSYVSWYQQKPGSPPRDLLYVDDQRPSGVSKSFSGSKDTSANAGLLLISGLQPEDEADYYCQSYDSNIDGPVFGGGTHLTVLG
# B5: Caninized 10A12 H2L6 (antibody, V domains shown)
# VH: B4 VH with V23A, K98R
# VL: B4 VL with L48V, L49I, G58E, Y90F
# B6: Chimeric rat/canine 44E2 (antibody, V domains shown)
# VH: QVQLKESGPGLVQPSQTLSLTCTVSGFSLTSNGVSWVRQPPGKGLEWIAAISSGGSTYYNSVLKSRLSISRDTSKSQVFLKMNSLQTEDTAIYFCTRRLSGYNYVPFAYWGQGTLVTVSS
# VL: DIQMTQSPSLLSASVGDRVTLNCKASQNIYKHLAWCQQKLGEPPNLLISNANSLQTGIPSRFSGSGSGTDFTLTISSLQPEDVATYFCQQYYSGDTFGAGTKLELKR
# B7: cIL-13Rα1-cIgGB-Fc-YTE CH2 Numbering (L18Y/A20T/T22E) (Fc fusion)
# chain: GGVAAPTETQPPVTNLSVSVENLCTVIWTWDPPEGASPNCTLRYFSHFDNKQDKKIAPETHRSKEVPLNERICLQVGSQCSTNESDNPSILVEKCTPPPEGDPESAVTELQCVWHNLSYMKCTWLPGRNTSPDTNYTLYYWHSSLGKILQCEDIYREGQHIGCSFALTNLKDSSFEQHSVQIVVKDNAGKIRPSFNIVPLTSHVKPDPPHIKRLFFQNGNLYVQWKNPQNFYSRCLSYQVEVNNSQTETNDIFYVEEAKCQNSEFEGNLEGTICFMVPGVLPDTLNTVRIRVRTNKLCYEDDKLWSNWSQAMSIGENTDPTPKRENGRVPRPPDCPKCPAPEMLGGPSVFIFPPKPKDTLYITREPEVTCVVVDLDPEDPEVQISWFVDGKQMQTAKTQPREEQFNGTYRVVSVLPIGHQDWLKGKQFTCKVNNKALPSPIERTISKARGQAHQPSVYVLPPSREELSKNTVSLTCLIKDFFPPDIDVEWQSNGQQEPESKYRTTPPQLDEDGSYFLYSKLSVDKSRWQRGDTFICAVMHEALHNHYTQESLSHSPGK
# notes: Homodimer; also called cIL-13Rα1-cFc-YTE
# B8: Chimeric rat/canine 10A12 (antibody, V domains shown)
# VH: EVQLVESGGGLVKPGRSMKLSCAASGFTFSNYYMAWVRQAPTKGLEWVASISTGGGNTYYRDSVKGRFTISRDNAKRTLYLQMDSLRSEDTATYYCGRHGTLYFDYWGQGVMVTVSS
# VL: QFTLTQPKSVSGSLRSTITIPCERSSGDIGDSYVSWYQQHLGRPPINVIYVDDQRPSEVSDRFSGSIDSSSNSASLTITDLQMDDEADYFCQSYDSNIDGPVFGGGTKLTVLG
# B9: Caninized 28F12 H1k3 (antibody, V domains shown)
# VH: EVQLVESGGDLVKPGGSLRLSCVASGFTFSDYYMAWVRQAPGKGLQWVATISYDGSSTYYRDSVRGRFTISRDNAKNTLYLQMNSLRAEDTAMYYCAKGPLTDWAPNWFAYWGQGTLVTVSS
# VL: DIVMTQSPASLSLSQEEKVTITCQTSEDIYSGLAWYQQKPGQAPKLLIYGASRLEDGVPSRFSGSGSGTDFSFTISSLEPEDVAVYFCQQGLKYPNTFGAGTKVELKR
# B10: Caninized 28F12 H2k3 (antibody, V domains shown)
# VH: B9 VH with V23A, K98R
# VL: B9 VL
# B11: Caninized 28F12 H2k2 (antibody, V domains shown)
# VH: B9 VH with V23A, K98R
# VL: B9 VL with D1E, F87Y
# B12: cIL-4Rα-13Rα2_ZW1-cFc (Fc fusion)
# chain 1: VKVLHEPSCFSDYISTSVCQWKMDHPTNCSAELRLSYQLDFMGSENHTCVPENREDSVCVCSMPIDDAVEADVYQLDLWAGQQLLWSGSFQPSKHVKPRTPGNLTVHPNISHTWLLMWTNPYPTENHLHSELTYMVNVSNDNDPEDFKVYNVTYMGPTLRLAASTLKSGASYSARVRAWAQTYNSTWSDWSPSTTWLNYYEPWEQHLPPKRENGRVPRPPDCPKCPAPEMLGGPSVFIFPPKPKDTLLIARTPEVTCVVVDLDPEDPEVQISWFVDGKQMQTAKTQPREEQFNGTYRVVSVLPIGHQDWLKGKQFTCKVNNKALPSPIERTISKARGQAHQPSVYVYPPSREELSKNTVSLTCLIKDFFPPDIDVEWQSNGQQEPESKYRTTPPQLDEDGSYALVSKLSVDKSRWQRGDTFICAVMHEALHNHYTQESLSHSPGK
# chain 2: SMLSNAEIKVNPPQDFEIVDPGYLGYLSLQWQPPLFPDNFKECTIEYELKYRNIDSENWKTIITKNLHYKDGFDLNKGIEAKINTLLPAQCTNGSEVRSSWAETTYWTSPQGNRETKIQDMDCVYYNWQYLVCSWKPGMGVHFDTNYQLFYWYEGLDHSAECTDYIKVNGKNMGCRFPYLESSDYKDFYICVNGSSESQPIRPSYFIFQLQNIVKPMPPDYLSLTVKNSEEINLKWNMPKGPIPAKCFIYEIEFTEDGTTWVTTTVENEIQITRTSNESQKLCFLVRSKVNIYCSDDGIWSEWSDEQCWKGDIWKETPKRENGRVPRPPDCPKCPAPEMLGGPSVFIFPPKPKDTLLIARTPEVTCVVVDLDPEDPEVQISWFVDGKQMQTAKTQPREEQFNGTYRVVSVLPIGHQDWLKGKQFTCKVNNKALPSPIERTISKARGQAHQPSVYVLPPSREELSKNTVSLLCLIKDFFPPDIDVEWQSNGQQEPESKYLTWPPQLDEDGSYFLYSKLSVDKSRWQRGDTFICAVMHEALHNHYTQESLSHSPGK
# B13: cIL-13Rα2-cIgGB-Fc-YD CH2 Numbering (L18Y/T22D) (Fc fusion)
# chain: B12 chain 2 with L357Y, T361D, L471T, L499R, W501T
# notes: Homodimer; also called cIL-13Rα2-cFc-YD
# B14: cIL-4Rα-13Rα1_ZW1-cFc (Fc fusion)
# chain 1: B12 chain 1
# chain 2: B7 chain with Y361L, T363A, E365T, T475L, R503L, T505W
# notes: Bispecific heterodimer; also called cIL4Rα-IL13Rα1_ZW1-cFc; cIL-4Rα-IL-13Rα1_ZW1-cFc
# B15: cIL-13Rα2-cIgGB-Fc-YTE CH2 Numbering (L18Y/A20T/T22E) (Fc fusion)
# chain: B12 chain 2 with L357Y, A359T, T361E, L471T, L499R, W501T
# notes: Homodimer; also called cIL-13Rα2-cFc-YTE
# Columns and labels:
# [1] = target: canine IL-31Rα (canine); experiment: ELISA, plate coated with cIL-31Rα at 1 µg/mL, detection with HRP anti-dog IgG Fc, OD450/540
# [2] = target: canine IL-31Rα (canine); experiment: ELISA, plate coated with cIL-31Rα at 1 µg/mL, detection with HRP anti-dog IgG Fc, OD450/540nm
# [3] = target: T1, canine IL-13; experiment: BLI (OCTET HTX), biotin-cIL-13 on SA biosensors
# Procedure: (§1) The binding constants for the cFc fusion proteins provided in Tables 3 and 4 below, were determined using OCTET® HTX. All kinetics measurements were performed by OCTET® HTX using SA® biosensors and DATA ACQUISITION® 12.0 software. 10 μg/mL of biotin-labeled antigen, either canine IL-4 (cIL-4) or canine IL-13 (cIL-13) were loaded onto the SA® biosensors for 120 seconds. Next, the biosensors were placed into 1×pH 7.0 TBS/Casein buffer for 60 seconds for the blocking phase. For the association phase, antigen loaded biosensors were placed into 2-fold serial dilutions from 1 μM down to 15.6 nM of the wild-type, the bispecific, or the FcRn-mutant receptor Fc-fusions that recognized the cIL-4 or cIL-13 antigen in 1×pH 7.0 TBS/Casein buffer for 30 seconds. The last well was buffer alone and that sensor was used for reference sensor subtraction. Finally, the biosensors were placed into 1×pH 7.0 TBS/Casein buffer for 120 seconds for the dissociation phase. The results were then analyzed using Data Analysis 12.0 software and the curves were fitted using a 1:1 binding model.
# [4] = target: T2, canine IL-4; experiment: cell-based or functional assay
# [5] = target: T2, canine IL-4; experiment: BLI (OCTET HTX), biotin-cIL-4 on SA biosensors
# Procedure: as §1
binder,measurement,setting,value
B1,EC50,[1],1.35 ng/mL
B2,EC50,[1],3.97 ng/mL
B3,EC50,[1],1.66 ng/mL
same,EC50 (read off the curve),[1],1 ng/mL
B4,EC50,[2],13.5 ng/mL
B5,EC50,[2],0.34 ng/mL
B6,EC50,[1],1.37 ng/mL
B7,fold decrease in affinity against the unmodified cIL-13Rα1-cFc,[3],~4 fold decrease
B8,EC50,[2],0.518 ng/mL
B9,EC50,[1],1.74 ng/mL
B10,EC50,[1],1.74 ng/mL
B11,EC50,[1],1.74 ng/mL
B12,"IC50 for inhibition of cIL-4 mediated STAT6 phosphorylation in DH82 cells, against that of cIL4Rα-cFc or cIL4Rα-IL13Rα1_ZW1-cFc",[4],> 3 orders of magnitude higher
B13,factor of decrease of KD against the unmodified cIL-13Rα2-cFc,[3],~2 fold lower KD
B14,fold change of KD against the unmodified cIL-4Rα-cFc homodimer,[5],~10000 fold higher
same,fold tighter binding against the unmodified IL-13Rα1-cFc,[3],8 fold tighter
B15,factor of decrease of KD against the unmodified cIL-13Rα2-cFc,[3],~2 fold lower KD

# From patent US20240368249A1 (INTERVET, published 2024)
